Reference: the nanobody polyreactivity screen of Harvey et al. (2022)

Assay: yeast display, Sf9 membrane polyspecificity reagent, FACS + sequencing; frameworks hold sequencing errors
How it was run: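 Nanobodies from a synthetic yeast display library (Saccharomyces cerevisiae BJ5465), induced 36–48 hours with galactose, were stained 1 hour at 4 °C with 10% biotinylated, detergent-solubilized Sf9 membrane reagent, enriched on streptavidin microbeads, then FACS-sorted. Anti-HA (expression) and streptavidin (reagent binding) fluorescence set low and high (top ~1%) gates. Polyreactivity labels come from the gate of origin. Genes were colony-PCR amplified, MiSeq 2 × 250 sequenced and filtered by CDR length.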

Sequence | polyreactivity (PSR sort gate)
QFQLVESGGGLVQAGGSLRLSSAASGFIFAHNAMGWYRQAPGKERELVDAITSSGGSTYYADSVKGRFSISRDNAKNTVYLQMNSLKPEDTAVYYCNAYTYARRGYDYWGQGTQVTVSS | high polyreactivity
QFQLVESGGGLVQAGGSLRLSSAASGRTFLSYTMVWYRQAPGKERQFVAAITTSGGSTNYADSVKGRFTISRDNAKNTVYLQMNSLKAEDTAVYYCADEWSVYFYDPRSDYWGQGNQVTVSS | high polyreactivity
QFQLVESGGGLVQAGGSLRLTCAASGSIFLWYAMGWYRQAPGKERELVAVITSSGGTTYYADSVKGRFTISRDNAKNTVYLQMNCLKPADTAVYYCAADFYRHPPGSLTKLYYYWGQGTQVTVSS | low polyreactivity
QFQLVESGGGLVQAGGTLRLSCPATGLIFAYNTMGWYRHAPGKERELVAGITSGGSTYYADSVKGRFTISRDNAKNTVYLHLNSLKPEDSAVYYCAAAYRNWSVSFGYWGQGTQVTVSS | high polyreactivity
QFQLVESGGGLVQAGVSLRLSCAASGRIFSHYAMGWYRQAPGKERELVAASSSGGITYYADSVKGRFTISLDNAKNTVYLQMNCQKPEDTAVYYCAAVRRRGTTYDYWGQGTQVTVSS | high polyreactivity
QFQLVESGGGLVQAVGSLRLSCAASGITFYTYAMGWYRHAPGKESDFVSAITRSGGSTYYADSVKGRFTFSRDNAKNTVYLQMIILKPEDTAVYYCAVDIYFWSYGWWGPYDYWGQGTQVTVSS | low polyreactivity
QFQLVESGGGLVQEGGSLRLSCASSGRTFVSNAMGWYRQAPGKERELVAAISRRSGSTYYADSVKGRFTISRDNAKNTVYLQMNSLKPEDTAVYYCGAVLTRYGYDYWGQGTQVTVSS | high polyreactivity
QFQLVESGGGSVQAGGSLRLSCAASGSTFDYNMGWYRQAPGKERELVATIRSDGRTNYADSVKGRFTISRDNAKNTVYLQMNSLKPEDTAVYYCAADVYAYVDDFGGYDYWGQGTQVTVSS | low polyreactivity
QFQLVESGGGVVQAGGRLRLSCAASGSNFPRYAMGWYIQAPGKERELVAAISSSGGDTYYADSVKGLYTISRDNAKNTVYLQMNSLKPEDTAVYYCAALGAFPSLEFDYCGQGTQVTVSS | low polyreactivity
QFQLVESGRGLVQAGGSLRLSCAASGRTFSAYAIGWNSQAPVKQRELVAAITRGGSTNYADSVKGRFTISRDNAMNTLYLQMNRLKPEDTAVYYCAARRSSRKDFGYWGQGTQVTVSS | high polyreactivity
QFQLVESGRGLVQAGVSLRLSCASSGFTFILYAIGCYRQATGKERELVAGISNGGSTYYADSVKGRFTISRDNAKNTVYFQMNSLKPEDTAVDYCNRDLTFYLYVSGNYFGQGTQVTVSS | low polyreactivity
QFQLVESGRGLVQAVGSHRLRCAASGSILLKYAMGWYRQATGKEMELVAAITYRGASTHYADSVKGRFTISRDNAKNTVYLQMNSLKPEDTAVYYCAARGWVYYASEMDYWGQGTQVTVSS | low polyreactivity
QFQLVESRGGLVQAGGSLRLNCASSGSIFYSYAIGWYRQAPGKERELVAAITRGGSTYYADSVKGRFTISRDNAKNTVYLQMNSLKREDTAVYYCAAEFYSYKYPDYDYWGQGTQVTVSS | low polyreactivity
QFQLVESVGGLVQAGGSLRISCAASGIIFYSYALGWYREAPGKERELVATISFSGDNTYYADSVKGRFTISRDNAKNTVYLQMNSLKPEDTAVYYCAKDLGYRGRYNYWGQGTQVTVSS | low polyreactivity
QFQLVESVGGLVQAGGSLRLSCAASGFTFTAYAMGWYRQAPGTERELVAAISSGGSTYYADSVKGRFTISRDNAKNTVYLQMNSLKPEDTAVYYCAAVGVYTVKREYWGQGTQVTVSS | low polyreactivity
QFQLVESVGGLVQAGGSLRLSCAASGITFPANAMGWYRQAPGKERELVAAISSSGGSTYYADSVKGRFTISRDNAKNTVYLQMNSLKPEDTAVYYCAAYYGPSRSLYYYWGQGTQVTVSS | high polyreactivity

Sequence | polyreactivity (PSR sort gate)
QFQLVESVGGLVQAGGSLRLSCAASGRTFGNYAMGWYRQAPGKERELVAAISRSGGSTSYADSVKGRFTISRDNAKNTVYLQMNSLKPVDTAVYYCNAYFRGPRDYQYDYWGQGTQVTVSS | high polyreactivity
QFQQVESGGGLVQAGGSLRLSCAATGSIFSYTMGWYRQAPGKERELVAAITSGGITYYADSVKGRFTISRDNAKNTVYLQMNSLKPEDSAVYYCNAYYPYGLASFYYWGQGTQVTVSS | low polyreactivity
QFQRVESGGGLVQAGGSLRLTCAASGIIFVYNAMGWFRQATGKERELVAAINWRGDGTYYADSVKGRFTISRDNAKNTVYLQMNSLKQEDTAVYYCNAVRFRPNSHYRPVGYDYWGQGTQVTVSS | low polyreactivity
QGHLEESGGGLVQAGGSLRISCAASGRILPYYVMGGYRPAPGKERELVATIYWSGGSTYYADSVKGRFTISRDNAKNNVNLQINSLKPEDTAVYYSNAAPSDDYDYWGQGTQVTVSS | low polyreactivity
QGHLVESGGGLVQAGGSLRLSCAASGRIIRWNAMGWYRQGPGKERELFAGISGSGGSTYYADSVKGRFTISRDNAKNSVYLQMNSLKPEDTAVYYCNADADSSTYVGILQRLDYWGQGTQVTVSS | low polyreactivity
QGKLVESGGGLVQAGGSLRLSCAASGLTFGSNTMGGYRQAPGKERELVAAITSNGGSTYYADSVKGRFTISRDNAKNTVYVQMNSLKPEDTAVYYCAARSYDGYYRYYYWGQGTQVTVSS | low polyreactivity
QGQIVESGGGLVQAGGSLRLSCAASGFTFRRYAMGWYRQAPGKEREVVAGITSSGGSTYYADSVKGRFTSSRDKAKNPVYLQMNSLKPEDTAVYYCAAEWVYTSFDYWGQGTQVSVSS | high polyreactivity
QGQLGESGGGLVQAGGSLRLSCAASGSNFSSNAMGWYRQAPWKERELVAAISSGGSTNYADSVKGRFTISRDNAKNTVYLQMNSLKPEDTAVYYCAADTSTGVYTPYAFEFDWGQGTQVTVSS | low polyreactivity
QGQLVDSGGGVVQAGGSLRLSCAASGRTFPVYAMGWYRQAPGKERELVAAISSRGGSTYYADSVKGRFTISRDNAKNTVYLQMNSLKPEDTAVYYCAARMPGPRRFTMDYWGQGTQVTVSS | high polyreactivity
QGQLVDSGGGVVQAGGSLRLSSAASGRSFGRNVMGWYRPAPGKERELVAAIRYSSGGTYYADSVKGRFTISRDYAKNTVDLQMNSLKPEDTAVYYCAARFFRGYRGGDWGQGTQVTVSS | high polyreactivity
QGQLVESGGALFQAGGSLSLSCAASGRNFKRYAMGRYRQAPGKERELVAAIRTSDGLTYYADSVKGRFTISRDNAENTDYLQMNSLKPEETSVYYCADGYPYYHVYGYGYWGQGTQVTVSS | low polyreactivity
QGQLVESGGCLVQEGGSLRLSCAASGRIFLYYTMGWYRQAPGKERELVAAITRSGGSTYYADSVKGRFTISRDNAKNTVYLQMNSLQPVDTAVSYCNRAYVRYVPMNYWGQGTLVTVSS | high polyreactivity
QGQLVESGGGLVQAGGRLRLSCAAAGGIFYSNRMGWYRQATGKEREMVAAITGGDITDYADSVKGRFTISRDNAKNTDYLQMNSLKPEDTAVYYCAGESNPPDYGPRFGSWGQGTQVSVSS | low polyreactivity
QGQLVESGGGLVQAGGRLRLSCAASGRIFPNNAMGWYRQAPGKERELVAAISRSGGRTYYADSVKGRFTISRDNAKNTVYLQMNSLKPEDTAVYYCAARSWGGYDSRGYWGQGTQVTVSS | high polyreactivity
QGQLVESGGGLVQAGGSLRFSCAASGSTFRSYALGGYRQAPGKEWELVAAISGDGSTNYADSVKGRFTISRDNAKNPVYLQMNSLKPEDTAVYYCAKDPGYPAPYYDYYYWGQGTKVTVSS | low polyreactivity
QGQLVESGGGLVQAGGSLRLRCAASGRTFYTYAMGWYRQAPGKERELVATITSGGSTYADSVKGRFTISRDNAKNTVYLQMNSLKPEDTAVYYCARGYYKPSVGKSKRVGGNYWGQGTQVTVSS | high polyreactivity
